These results are taken from patent US20250361298A1 (published 2025).

Assay in all cases: BLI
(In general: BLI is a label-free optical method that tracks binding on a fibre tip over time.)

Experiment [1] addresses cp1339.
In experiment [2] the target is cp1340.
Experiment [3] concerns the target cp1342.
The target of experiment [4] is cp1352.
The target of experiment [5] is cp1286.
The target of experiment [6] is cp1292.
Experiment [7] addresses cp1285.
For experiment [8], the target named is cp1284.
Experiment [9] addresses cp1353.
The target of experiment [10] is cp1338.
Experiment [11] has as its target T1, LY6G6D.
T1 chain: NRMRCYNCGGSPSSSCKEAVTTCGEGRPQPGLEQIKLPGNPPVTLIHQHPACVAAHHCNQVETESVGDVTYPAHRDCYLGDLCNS

B1: cp203 (Fc fusion)
chain: NRMRCYNCGGSPSSSCKEAVTTCGEGRPQPGLEQIKLPGNPPVTLIHQHPACVAAHHCNQVETESVGDVTYPAHRDCYLGDLCNS
modifications: biotinylated for BLI capture (site not stated)
With B1, the Kd in experiment [1] worked out at 0.824 nM; in experiment [2], 2.52 nM; in experiment [3] it was 1.73 nM; in [4] it was 1.54 nM; in experiment [5], 1.12 nM; in experiment [6], 6.97 nM. Also, the Kd in [7] stood at 1.78 nM; in experiment [8] it was 40.7 nM; in experiment [9] it was 21.8 nM; in experiment [10], 0.695 nM.

B2: CB21-499-177 (antibody, V domains shown)
VH: EVQLVESGGGVVQPGRSLRLSCAASGFTFSSYGMHWVRQAPGKGLEWVAVIWYDASNKEYAPSVKGRFTISRDNSKNTLYLQMNSLRAEDTAIYYCARPGEGDYWGQGTLVTVSS
VL: DIQMTQSPSSLSASVGDRVTITCRASQGVRNDFGWFQQKPGKAPKRLIYGASSLQSGVPSRFSGSGSGTEFTLTISSLQPEDFATYYCLQQNSYPWTFGQGTKLEIK
As to B2, the Kd in experiment [11] was 0.255 nM.

B3: CB21-499 (antibody, V domains shown)
VH: EVQLVESGGGVVQPGRSLRLSCAASGFTFSSYGMHWVRQAPGKGLEWVAVIWYDGSNKDYADSVKGRFTISRDNSKNTLYLQMNSLRAEDTAIYYCARPGEGDYWGQGTLVTVSS
VL: DIQMTQSPSSLSASVGDRVTITCRASQGVRNDFGWFQQKPGKAPKRLIYGASSLQSGVPSRFSGSGSGTEFTLTISSLQPEDFATYYCLQQNSYPWTFGQGTKLEIK
The molecule B3 displayed an equilibrium dissociation constant (Kd) in [11] of 0.337 nM.

As usually defined, the Kd is a measure of binding affinity in units of concentration. Read a high Kd as weaker binding.
